Here are results for 95 sequences from the supplement of paper PMC6755084.

For this data set, the system named is F1*sub RNA substrate (template-directed ligation). Kind of data set: fraction ligated after 30 min (ligated reads / total reads); higher = more ligase activity; sequences stand for … in GAGACCGCAACTGAAAAGTTGT…AGTTCTGCACGTAGAAGCAAAAGGC
Particulars: 42 °C. As to the method: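 Chip-synthesised pool of F1* ligase ribozyme variants (all single and double substitutions, single, double and triple deletions in the catalytic core and GAA bulge, plus designed variants) was transcribed with T7 and reacted as a pool with excess substrate F1*sub for 30 min at 42 C in 50 mM EPPS pH 8.5, 25 mM MgCl2. Ligated and unligated bands were separated by PAGE, barcoded by RT and deep sequenced; fraction ligated = ligated reads / total reads per variant, relative activity = FL / FL of wild type (0.826). Sequences are the DNA template of the ribozyme.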
ATCACTTGCGTAAGACACTTTGGATGGTTGA [3d153] showed a fraction ligated of 0.569.
Regarding ATCACTTGCGTAAGACACTTTGGTGGGTTGA [3d151], the fraction ligated was 0.0301.
As to ATCACTTGCGTAAGACATTTGGATGGGTTGA [3d148], the fraction ligated came out at 0.768.
For ATCACTTGCGTAAGACCTTTGGATGGGTTGA [3d147] the value was 0.757; for ATCACTTGCGTAAGCACTTTGGATGGGTTGA [3d145], 0.804; for ATCACTTGCGTAGACACTTTGGATGGGTTGA [3d143], 0.818.
Next, ATCACTTGCTAAGACACTTTGGATGGGTTGA [3d141]: 0.763; ATCACTTGGTAAGACACTTTGGATGGGTTGA [3d140]: 0.735; ATCACTTGTCAAGACACTTTGGATGGGTTGA [3d171]: 0.749.
Take ATCACTTGTCGAAACACTTTGGATGGGTTGA [3d186]: the fraction ligated amounted to 0.784.
In turn, ATCACTTGTCGAAGAACTTTGGATGGGTTGA [3d188] came in with a fraction ligated of 0.805.
For ATCACTTGTCGAAGACACTTGGATGGGTTGA [3d191] the value was 0.728; for ATCACTTGTCGAAGACACTTTGATGGGTTGA [3d192], 0.655; for ATCACTTGTCGAAGACACTTTGGAGGGTTGA [3d194], 0.128.
Sequence ATCACTTGTCGAAGACACTTTGGATGGGTTA [3d196] registered a fraction ligated of 0.707.
As for ATCACTTGTCGAAGACACTTTGGATGGGTTG [3d197], the fraction ligated was determined as 0.795.
Next, ATCACTTGTCGAAGACACTTTGGATGGGTTGA [2d11]: 0.777.
For ATCACTTGTCGAAGACACTTTGGATGGTTGA [3d195] the value was 0.714; for ATCACTTGTCGAAGACACTTTGGTGGGTTGA [3d193], 0.0564.
Next, ATCACTTGTCGAAGACATTTGGATGGGTTGA [3d190]: 0.762; ATCACTTGTCGAAGACCTTTGGATGGGTTGA [3d189]: 0.75; ATCACTTGTCGAAGCACTTTGGATGGGTTGA [3d187]: 0.736.
Take ATCACTTGTCGAGACACTTTGGATGGGTTGA [3d185]: the fraction ligated was determined as 0.757.
For ATCACTTGTCGTAAAACTTTGGATGGGTTGA [3d211] the value was 0.768; for ATCACTTGTCGTAAACACTTGGATGGGTTGA [3d214], 0.742.
For ATCACTTGTCGTAAACACTTTGATGGGTTGA [3d215] the value was 0.521.
For ATCACTTGTCGTAAACACTTTGGAGGGTTGA [3d217], the fraction ligated was 0.0797.
For the sequence ATCACTTGTCGTAAACACTTTGGATGGGTTA [3d219], the fraction ligated stood at 0.54.
As to ATCACTTGTCGTAAACACTTTGGATGGGTTG [3d220], the fraction ligated is 0.75.
The sequence ATCACTTGTCGTAAACACTTTGGATGGGTTGA [2d13] returned a fraction ligated of 0.78.
For ATCACTTGTCGTAAACACTTTGGATGGTTGA [3d218] the value was 0.557; for ATCACTTGTCGTAAACACTTTGGTGGGTTGA [3d216], 0.0249.
Next, ATCACTTGTCGTAAACATTTGGATGGGTTGA [3d213]: 0.777; ATCACTTGTCGTAAACCTTTGGATGGGTTGA [3d212]: 0.758.
Next, ATCACTTGTCGTAACACTTTGGATGGGTTGA [3d199]: 0.779; ATCACTTGTCGTAAGAACTTGGATGGGTTGA [3d232]: 0.751; ATCACTTGTCGTAAGAACTTTGATGGGTTGA [3d233]: 0.533.
Regarding ATCACTTGTCGTAAGAACTTTGGAGGGTTGA [3d235], the fraction ligated turned out to be 0.0738.
For ATCACTTGTCGTAAGAACTTTGGATGGGTTA [3d237] the value was 0.351; for ATCACTTGTCGTAAGAACTTTGGATGGGTTG [3d238], 0.794.
For ATCACTTGTCGTAAGAACTTTGGATGGGTTGA [2d15] the value was 0.821; for ATCACTTGTCGTAAGAACTTTGGATGGTTGA [3d236], 0.273; for ATCACTTGTCGTAAGAACTTTGGTGGGTTGA [3d234], 0.0239.
In turn, ATCACTTGTCGTAAGAATTTGGATGGGTTGA [3d231] yielded a fraction ligated of 0.757.
Next, ATCACTTGTCGTAAGACACTGGATGGGTTGA [3d253]: 0.701; ATCACTTGTCGTAAGACACTTGATGGGTTGA [3d254]: 0.164; ATCACTTGTCGTAAGACACTTGGAGGGTTGA [3d256]: 0.0205.
For ATCACTTGTCGTAAGACACTTGGATGGGTTA [3d258] the value was 0.214; for ATCACTTGTCGTAAGACACTTGGATGGGTTG [3d259], 0.687; for ATCACTTGTCGTAAGACACTTGGATGGGTTGA [2d18], 0.761.
In turn, ATCACTTGTCGTAAGACACTTGGATGGTTGA [3d257] returned a fraction ligated of 0.216.
ATCACTTGTCGTAAGACACTTGGTGGGTTGA [3d255]: the fraction ligated turned out to be 0.00771.
Next, ATCACTTGTCGTAAGACACTTTATGGGTTGA [3d260]: 0.0125.
For ATCACTTGTCGTAAGACACTTTGAGGGTTGA [3d262] the value was 0.0273.
With ATCACTTGTCGTAAGACACTTTGATGGGTTA [3d264], the fraction ligated was 0.0628.
In turn, ATCACTTGTCGTAAGACACTTTGATGGGTTG [3d265] yielded a fraction ligated of 0.518.
Turning to ATCACTTGTCGTAAGACACTTTGATGGGTTGA [2d19], the fraction ligated was 0.702.
In the case of ATCACTTGTCGTAAGACACTTTGATGGTTGA [3d263], the fraction ligated was found to be 0.0782.
Next, ATCACTTGTCGTAAGACACTTTGGAGGGTTA [3d271]: 0.0188; ATCACTTGTCGTAAGACACTTTGGAGGGTTG [3d272]: 0.094.
For ATCACTTGTCGTAAGACACTTTGGAGGGTTGA [2d21] the value was 0.189.
ATCACTTGTCGTAAGACACTTTGGAGGTTGA [3d270] came in with a fraction ligated of 0.0103.
For ATCACTTGTCGTAAGACACTTTGGATGGGTT [3d275] the value was 0.392.
With ATCACTTGTCGTAAGACACTTTGGATGGGTTA [2d23], the fraction ligated was found to be 0.747.
For ATCACTTGTCGTAAGACACTTTGGATGGGTTG [2d24] the value was 0.769; for ATCACTTGTCGTAAGACACTTTGGATGGGTTGA [1d1], 0.781.
For ATCACTTGTCGTAAGACACTTTGGATGGTTA [3d273] the value was 0.68; for ATCACTTGTCGTAAGACACTTTGGATGGTTG [3d274], 0.691.
As for ATCACTTGTCGTAAGACACTTTGGATGGTTGA [2d22], the fraction ligated was 0.76.
For “ATCACTTGTCGTAAGACACTTTGGATGTGGTTGA [s38]”, the fraction ligated is 0.693.
As for ATCACTTGTCGTAAGACACTTTGGGGGTTGA [3d266], the fraction ligated turned out to be 0.0143.
For ATCACTTGTCGTAAGACACTTTGGTGGGTTA [3d268] the value was 0.00829; for ATCACTTGTCGTAAGACACTTTGGTGGGTTG [3d269], 0.0136; for ATCACTTGTCGTAAGACACTTTGGTGGGTTGA [2d20], 0.0391.
For ATCACTTGTCGTAAGACACTTTGGTGGTTGA [3d267], the fraction ligated worked out at 0.0134.
In the case of ATCACTTGTCGTAAGACACTTTGTGGGTTGA [3d261], the fraction ligated came out at 0.0128.
Next, ATCACTTGTCGTAAGACATTGGATGGGTTGA [3d246]: 0.739.
For ATCACTTGTCGTAAGACATTTGATGGGTTGA [3d247] the value was 0.0818; for ATCACTTGTCGTAAGACATTTGGAGGGTTGA [3d249], 0.0168.
Sequence ATCACTTGTCGTAAGACATTTGGATGGGTTA [3d251] registered a fraction ligated of 0.66.
ATCACTTGTCGTAAGACATTTGGATGGGTTG [3d252] came in with a fraction ligated of 0.739.
Next, ATCACTTGTCGTAAGACATTTGGATGGGTTGA [2d17]: 0.78; ATCACTTGTCGTAAGACATTTGGATGGTTGA [3d250]: 0.445; ATCACTTGTCGTAAGACATTTGGTGGGTTGA [3d248]: 0.00393.
For ATCACTTGTCGTAAGACCTTGGATGGGTTGA [3d239] the value was 0.716; for ATCACTTGTCGTAAGACCTTTGATGGGTTGA [3d240], 0.311; for ATCACTTGTCGTAAGACCTTTGGAGGGTTGA [3d242], 0.04.
ATCACTTGTCGTAAGACCTTTGGATGGGTTA [3d244] had a fraction ligated of 0.645.
For ATCACTTGTCGTAAGACCTTTGGATGGGTTG [3d245] the value was 0.706; for ATCACTTGTCGTAAGACCTTTGGATGGGTTGA [2d16], 0.741.
Next, ATCACTTGTCGTAAGACCTTTGGATGGTTGA [3d243]: 0.712.
For ATCACTTGTCGTAAGACCTTTGGTGGGTTGA [3d241] the value was 0.0169; for ATCACTTGTCGTAAGACTTTGGATGGGTTGA [3d221], 0.727; for ATCACTTGTCGTAAGCACTTGGATGGGTTGA [3d224], 0.716.
On to ATCACTTGTCGTAAGCACTTTGATGGGTTGA [3d225], for which the fraction ligated amounted to 0.393.
